Measured values from publication PMC10014274.

Target: VNp-mNeongreen-TEV-etanercept-His6 fusion protein (human)
Experiment: SDS-PAGE without reducing agent and anti-mNeongreen western blot; VNp-mNG-etanercept purified from E. coli, without DTT

VNp-mNeongreen-TEV-etanercept-His6 fusion protein (Fc fusion)
stoichiometry N: 2
